Experimental data: US7691567B2, “Methods and compositions relating to fortilin, an anti-apoptotic molecule, and modulators of fortilin” (Board of Regents, the University of Texas System, priority 2000, dated 2010)
Entries after “also recorded” stand apart in the source; their conditions may differ.

How the values were obtained:
[1] = molecular target: Bcl-xL (Homo sapiens, UniProt Q07817); experiment: GST-Fortilin in vitro pull-down of labeled Bcl-xL; type: binding; conditions: 35S-labeled Bcl-xL
Description: (§1) Studies were initiated to determine whether p53 and Fortilin specifically interact. Either recombinant GST-Fortilin or GST only were incubated at 4° C. for 90 minutes with in vitro translated, [^35S-Met]-labeled p53, MCL1 or Bcl-xL, in Binding Buffer (50 mM HEPES, pH7.5, 70 mM KCl, 0.5 mM ATP, 5 mM MgSO4, 1 mM DTT, 0.001% NP40, 50 μM MG132, 2 μg/mL BSA, Aporotinin, PMSF and protease inhibitor cocktail (Sigma Co., St. Louis, Mo.)). The GST or GST-Fortilin was then pulled down with Glutathione Sepharose 4B beads (Amersham-Pharmacia Biotechnologies). Formed complexes were extensively washed and eluted into SDS loading buffer. The eluted proteins were subjected to SDS-PAGE in duplicate. The first SDS gel was stained with Commassie Blue to confirm the successful immunoprecipitation of GST and GST-Fortilin (IP). […] Thus, there is a specific interaction present between Fortilin and p53, between Fortilin and MCL1.

[2] = tested on: MCL1; experiment: Western blot of intracellular MCL1 concentration in U2OS cells overexpressing Fortilin; type: cell-based; conditions: U2OS stable transfectants, compared with control or wild type transfectants
[3] = molecular target: T1, MCL1 (Homo sapiens, UniProt Q07820); experiment: GST-Fortilin in vitro pull-down of labeled MCL1; type: binding; conditions: 35S-labeled MCL1
Description: as §1

[4] = molecular target: p53 (Homo sapiens, UniProt P04637); experiment: GST-Fortilin in vitro pull-down of labeled p53; type: binding; conditions: 35S-labeled p53, 4° C. 90 minutes
Description: as §1

[5] = molecular target: Bax (Homo sapiens, UniProt Q07812); experiment: In vitro pull-down assay of Fortilin-HA with Bax; type: binding; conditions: in vitro translated proteins, anti-HA pull-down
[6] = molecular target: T1, MCL1; experiment: In vitro pull-down assay of HA-tagged Fortilin or mutants with MCL1; type: binding; conditions: in vitro translated 35S-labeled proteins, anti-HA pull-down
[7] = tested on: p53 transactivation of Bax gene; experiment: p53 transactivation of Bax gene, p-Bax-RE-Luc luciferase reporter in H1299 cells; type: cell-based
Description: The ability of Fortilin to interfere with transactivation of the Bax gene by p53 was investigated. Non-small cell lung cancer cell line H1299 cells were transfected with p53-pcDNA3, LacZ-pFLAG, p-Bax-RE-Luc (a plasmid encoding the Luciferase gene under the control of the Bax responsive element) and pFLAG vector encoding Bcl-2, MCL1, Fortilin or truncated Fortilin as indicated in FIG. 6. Twenty-four hours after the transfection, luciferase activity was measured and normalized to the β-galactosidase activity, the latter representing transfection efficiency.
Next, studies were conducted to determine whether the inhibition was dosage dependent. H1299 cells were transfected with p53-pcDNA3, LacZ-pFLAG, p-Bax-RE-Luc and various amount of Fortilin-pFLAG. The total amount of DNA added was adjusted by the addition of empty pFLAG vector. Twenty-four hours after the transfection, luciferase activity was measured and normalized to the β-galactosidase activity.

[8] = molecular target: T1, MCL1; experiment: In vivo coimmunoprecipitation assay in U2OS stable transfectants of Fortilin and mutants; conditions: anti-HA immunoprecipitation
Description: In vivo coimmunoprecipitation assay. COS-7 cells (2.5×10^6) were cotransfected with pcDNA3-Fortilin-HA or pcDNA3 and with FLAG-MCL1/pFLAG-CMV or pFLAG-CMV vectors using FuGENE6 (Roche Molecular Biochemicals), according to the manufacturer's instructions. […] Formed complexes were precipitated by sheep anti-rat antibodies conjugated to Dynabead™ (Dynal USA); washed with Buffers A and B; eluted into SDS gel loading buffer; and subjected to SDS-PAGE, Western blot transfer and immuodetection with anti-HA (16B12; Covance, Richmond, Calif.) and anti-FLAG (M2; Sigma) antibodies. […] Cells were harvested by scraping, washed with chilled PBS, suspended in Buffer C (Buffer A supplemented with 0.02% NP-40), and lysed by a nitrogen cavitation method (PARR Instrument Co). […] Formed complexes were precipitated by sheep anti-rat antibodies conjugated to Dynabeads™ (Dynal USA); washed with Buffers C; eluted into SDS gel loading buffer; and subjected to SDS-PAGE, Western blot transfer and immuodetection with anti-HA (16B12; Covance, Richmond, Calif.) and anti-MCL1 (Santa Cruz Biotechnology) antibodies.

[9] = tested on: H1299 cells; experiment: p53-mediated apoptosis in transfected H1299 cells (apoptotic index); type: cell-based; conditions: overexpression, thirty hours after transfection
Description: Because wild-type p53 can induce apoptosis, the ability of Fortilin to prevent or inhibit p53-mediated apoptosis was examined. H1299 cells were transfected with indicated combinations of mammalian expression constructs. Thirty hours after the transfection, cells were fixed and stained for beta-galactosidase activities. Cells that were round in shape with significant membrane irregularity were counted as apoptotic (FIG. 5). Apoptotic index was calculated as (Blue cells with apoptotic plasma membrane morphology)/(Total blue cells counted)×100.

[10] = tested on: HeLa cells; experiment: Cell death assay: etoposide-induced apoptosis in transfected HeLa cells (apoptotic index); type: cell-based
Description: Cell death assay: The experiment was performed in duplicate and repeated at least three times. A total of […] HeLa cells were seeded in each well of a 4-well Lab-Teck™ chamber slides (Nalge Nunc International), and transfected with pFLAG containing Fortilin or other control cDNAs, using FuGENE6 (Roche). Twenty-four hours after the transfection, the cells were challenged by 5 μg/mL etoposide for 12 hours. Cells were stained for the FLAG-epitope using anti-FLAG antibody (M2, Sigma Co) and anti-mouse IgG conjugated to Rhodamine Red X (Jackson ImmunoResearch Laboratories). The nuclei were stained with DAPI (4,6-Diamidino-2-phenylindole, Sigma Co). Cells were then examined under a Zeiss AXIOSKOP fluorescent microscope (Carl Zeiss Ltd.), using appropriate filter sets. Cells that emitted red fluorescence were evaluated for their nuclear morphology. Condensed or fragmented nuclei were counted as apoptotic. An apoptotic index was then calculated as the number of red cells with apoptotic nuclear morphology divided by the number of total red cells counted and multiplied by 100.
Statistical analysis: For the analysis of statistical significance of apoptotic indices among cells transfected with different plasmids, Dunnett's T tests were performed. In all cases, the confidence intervals were 0.95 with the alpha value of 0.05. For the statistical evaluation of the significant linear trend between the amount of plasmids used for the transfection and apoptotic indices, ANOVA (Analysis of Variance) regression analysis was employed. […] For the analysis of statistical significance of possible correlation between the degree of malignancy and the indices of Fortilin immunoreactivity, Dunnett's multiple range tests were performed.

T1 sequence (Q07820 whole entry): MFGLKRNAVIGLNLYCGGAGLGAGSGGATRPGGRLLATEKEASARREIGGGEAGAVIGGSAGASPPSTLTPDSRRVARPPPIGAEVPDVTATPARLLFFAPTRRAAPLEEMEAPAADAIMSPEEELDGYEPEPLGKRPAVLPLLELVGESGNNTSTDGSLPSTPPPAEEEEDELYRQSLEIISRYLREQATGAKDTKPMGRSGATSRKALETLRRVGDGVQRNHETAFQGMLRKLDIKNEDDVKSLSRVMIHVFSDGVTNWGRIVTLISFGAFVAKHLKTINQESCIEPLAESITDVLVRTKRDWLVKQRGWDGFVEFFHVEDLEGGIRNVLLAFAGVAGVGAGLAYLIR
Chain of Bax (Q07812 whole entry, species assumed): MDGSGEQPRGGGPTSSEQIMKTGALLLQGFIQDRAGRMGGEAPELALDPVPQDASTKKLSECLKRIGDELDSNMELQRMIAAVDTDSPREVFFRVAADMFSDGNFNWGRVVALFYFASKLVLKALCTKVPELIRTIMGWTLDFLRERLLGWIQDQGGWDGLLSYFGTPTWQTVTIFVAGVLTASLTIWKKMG
Chain of p53 (P04637 whole entry, species assumed): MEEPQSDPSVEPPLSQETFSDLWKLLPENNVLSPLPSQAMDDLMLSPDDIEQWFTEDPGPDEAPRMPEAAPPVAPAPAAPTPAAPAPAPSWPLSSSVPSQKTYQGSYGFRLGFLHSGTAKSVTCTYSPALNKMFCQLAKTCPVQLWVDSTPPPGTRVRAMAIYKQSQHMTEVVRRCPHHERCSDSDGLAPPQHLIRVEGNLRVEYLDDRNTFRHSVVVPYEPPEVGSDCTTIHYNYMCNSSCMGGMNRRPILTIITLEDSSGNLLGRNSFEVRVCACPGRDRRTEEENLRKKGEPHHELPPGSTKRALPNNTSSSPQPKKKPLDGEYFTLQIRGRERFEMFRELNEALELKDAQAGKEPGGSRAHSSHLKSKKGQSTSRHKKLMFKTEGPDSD
Chain of Bcl-xL (Q07817 whole entry, species assumed): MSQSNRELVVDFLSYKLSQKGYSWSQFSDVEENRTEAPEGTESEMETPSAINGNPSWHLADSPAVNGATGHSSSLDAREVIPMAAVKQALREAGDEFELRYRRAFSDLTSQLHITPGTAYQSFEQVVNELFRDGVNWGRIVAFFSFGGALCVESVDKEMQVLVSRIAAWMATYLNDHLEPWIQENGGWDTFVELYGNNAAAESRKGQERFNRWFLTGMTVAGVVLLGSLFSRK

## Fortilin: 172 amino acid anti-apoptotic polypeptide (SEQ ID NO:2), overexpressed from expression constructs or used as recombinant/in vitro translated protein
[1]
  co-immunoprecipitation of Bcl-xL with Fortilin in vitro: not Bcl-xL
[2]
  expression levels of MCL1 (MCL1 Expression Index): similar
[3]
  co-precipitation of MCL1 with Fortilin in vitro: co-precipitated with Fortilin
[4]
  co-immunoprecipitation of p53 with Fortilin in vitro: co-immunoprecipitated with Fortilin in vitro
[5]
  co-immunoprecipitation of Bax with Fortilin in vitro: not
[6]
  interaction / co-immunoprecipitation with MCL1 in vitro: co-immunoprecipitated with Fortilin in vitro
[6]; listed as full-length Fortilin
  interaction / co-immunoprecipitation with MCL1 in vitro: co-immunoprecipitated MCL1 in vitro; also recorded: interacted
[7]; twenty-four hours after transfection
  inhibition of p53 transactivation of Bax gene (luciferase normalized to β-galactosidase): inhibited p53 transactivation of the Bax gene
[7]; various amount of Fortilin-pFLAG
  inhibitory effect on p53 transactivation of Bax gene versus amount of Fortilin transfected: stronger inhibitory effects on p53 transactivation of the Bax gene; also recorded: larger inhibitory effect on p53 transactivation of Bax gene
[8]
  co-immunoprecipitation of MCL1 in vivo: co-immunoprecipitated MCL1
[9]
  suppression of p53 induced apoptosis (apoptotic index): statistically significant (p<0.001) suppression of p53-induced apoptosis; also recorded: statistically significant (p<0.001) suppression of p53 induced apoptosis
[10]; HeLa cells overexpressing FLAG-tagged protein, 5 μg/mL etoposide 12 hours
  prevention of Etoposide-induced apoptosis (apoptotic index): prevented HeLa cells from undergoing Etoposide-induced apoptosis in a statistically significant fashion; also recorded: as strong an anti-apoptotic effect as that of Bcl-xL and MCL1
[10]; HeLa cells, various amounts of pFLAG-Fortilin, etoposide challenge
  apoptotic index versus amount of Fortilin expressed: more prominent anti-apoptotic effects
